From patent publication US9616120B2, “Monoclonal antibodies directed to CD20” (VET THERAPEUTICS, INC., priority 2010, dated 2017)

Experiments:
lymphoma cells = assay: MTT proliferation assay on lymphoma cells; type: cell-based; conditions: 72 h; for percentage of reduction of cell proliferation, Doxorubicin 6.6 nM: Mab 10 ug/mL plus Doxorubicin 6.6 nM; for percentage of reduction of cell proliferation, Doxorubicin 66 nM: Mab 10 ug/mL plus Doxorubicin 66 nM; for percentage of reduction of cell proliferation, Doxorubicin 0 nM: Mab 10 ug/mL, triplicate
Method: Lymphoma cells are grown in RPMI medium with FBS 10% in 5% carbon dioxide (CO2) at 37° C. Cells are seeded at 5,000 cells/well in 96-well plates in medium with 5% FBS. Cells are treated with the antibody variants or isotype controls (10 μg/ml) and incubated for 72 h at 37° C. in a CO2 incubator. Ten (10) μL, MTT solution is added to each well and incubated at 37° C. for 4 h according to the manufacturer's instruction (Trevigen). Optical density (OD) is then measured at 490 nm and data is presented as percentage of reduction of cell proliferation of triplicate measurements. The data in Table 5 illustrate that the antibody variants have an anti-proliferative effect on lymphoma cells. Furthermore, the antibody variants sensitize the lymphoma cell line to Doxorubicin, a cytotoxic drug commonly used in the treatment of cancer for companion animals.
The antibody variants of the present invention are further tested for their ability to alter proliferation of lymphoma cells. Cell assays are conducted as described in the example above. Data is presented in Table 6 as percentage of reduction of cell proliferation of triplicate measurements.

[1] = molecular target: T1, recombinant canine CD20 expressed in HEK cells (Canis lupus familiaris, UniProt Q3C2E2, A201T/C77Y/G273E/L198V); assay: FACS binding to cells expressing recombinant canine CD20
T1 construct: expressed in transfected cells; host or cells: HEK cells
T1 sequence (Q3C2E2 1-297 C77Y/L198V/A201T/G273E): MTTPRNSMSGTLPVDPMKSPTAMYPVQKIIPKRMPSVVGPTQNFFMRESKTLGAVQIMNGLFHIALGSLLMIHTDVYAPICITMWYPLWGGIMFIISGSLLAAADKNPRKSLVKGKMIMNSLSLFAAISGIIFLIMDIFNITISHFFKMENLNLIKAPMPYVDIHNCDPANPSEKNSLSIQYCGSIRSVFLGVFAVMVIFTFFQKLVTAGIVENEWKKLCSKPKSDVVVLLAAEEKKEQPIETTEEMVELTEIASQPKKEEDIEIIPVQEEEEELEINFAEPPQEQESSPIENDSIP
Method: (§1) The binding of the antibody variants of the present invention raised to canine CD20 can be assessed by FACS analysis for their binding to feline CD20 according to standard immunological techniques (see Veterinary Immunology and Immunopathology 2005, 106:179-196; Brousseau et al., Manual of Immunology Methods, CRC Press, 1998). In the present example, the antibody variants (2.5 μg/mL) are incubated with mammalian cells expressing the recombinant feline CD20 or canine CD20 or control cells. The amount of bound antibody is assessed by detection with a fluorescent-labeled reporter antibody reagent. Several controls are utilized to determine the background fluorescence: (i) CD20 expressing cells are incubated with the conjugated secondary antibody with an isotype antibody, and (ii) Control cells are incubated with the anti-CD20 antibodies.

[2] = system: feline CD20 expressed in mammalian cells; assay: FACS binding to cells expressing recombinant feline CD20; conditions: antibody 2.5 μg/mL
feline CD20 expressed in mammalian cells, sequence (as listed by the source): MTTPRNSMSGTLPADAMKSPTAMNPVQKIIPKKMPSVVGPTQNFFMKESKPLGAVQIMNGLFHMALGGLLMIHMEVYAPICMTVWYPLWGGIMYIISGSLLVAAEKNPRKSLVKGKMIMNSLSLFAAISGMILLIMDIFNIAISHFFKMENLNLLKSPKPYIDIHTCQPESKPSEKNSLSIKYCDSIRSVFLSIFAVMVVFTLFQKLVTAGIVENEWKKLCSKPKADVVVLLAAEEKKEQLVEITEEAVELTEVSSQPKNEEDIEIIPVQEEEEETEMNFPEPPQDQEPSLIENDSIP
Method: as §1

Control Cells = assay: FACS binding to control cells; conditions: antibody 2.5 μg/mL
Method: In the present example, the antibody variants (2.5 μg/mL) are incubated with mammalian cells expressing the recombinant feline CD20 or canine CD20 or control cells. The amount of bound antibody is assessed by detection with a fluorescent-labeled reporter antibody reagent. Several controls are utilized to determine the background fluorescence: (i) CD20 expressing cells are incubated with the conjugated secondary antibody with an isotype antibody, and (ii) Control cells are incubated with the anti-CD20 antibodies.

recombinant canine CD20 = molecular target: T2, recombinant canine CD20 (Canis lupus familiaris, UniProt Q3C2E2, A201T/C77Y/G273E/L198V); assay: Competition experiments (epitope mapping) on CHO cells expressing recombinant canine CD20; type: binding
T2 construct: are transfected with an expression vector encoding the full-length canine CD20 protein; expressed in transfected cells; host or cells: CHO cells (CHO-DG44)
T2 sequence (Q3C2E2 1-297 C77Y/L198V/A201T/G273E): T1 sequence (Q3C2E2 1-297 C77Y/L198V/A201T/G273E)
Method: Competition experiments are performed using standard techniques. Briefly, biotinylated recombinant anti-canine CD20 antibodies are titrated on CHO cells expressing recombinant canine CD20. Cells are first incubated with an excess of unlabelled recombinant anti-canine CD20 antibody (25 μg/mL). Thereafter, cells are incubated with a biotin-labeled antibody at 2 μg/mL. After washing, cells are incubated with streptavidin- phycoerythrin and fluorescence is analyzed by flow cytometry. An irrelevant antibody is used as negative control for inhibition. Results are expressed as a ratio between fluorescence intensity of the cells pre-incubated with the unlabelled antibody and the fluorescence intensity obtained for each biotinylated antibody alone. The percentage of inhibition (PI) is calculated by the following formula: PI=[1−(Experimental-Background)/Biotinylated antibody alone−Background)]×100%.

B1: VET 133 X VET 257: antibody variant: light chain VET133 (VET132 CD20-1 LC + VET101) with heavy chain VET257 (VET256 CD20-1 HC + VET201) (antibody)
heavy: EIQLQQSGAELVKPGASVKISCKASGYTFTDYYINWVKQRPGQGLEWIGKIGPGSGRTYYNEKFKGKATLTADKSSSTAYIQISSLTSEDSAVYFCAVLSWGQGTTLTVSSASTTAPSVFPLAPSCGSQSGSTVALACLVSGYFPEPVTVSWNSGSLTSGVHTFPSVLQSSGLYSLSSMVTVPSSRWPSETFTCNVAHPASKTKVDKPVPKRENGRVPRPPDCPKCPAPEMLGGPSVFIFPPKPKDTLLIARTPEVTCVVVDLDPEDPEVQISWFVDGKQMQTAKTQPREEQFNGTYRVVSVLPIGHQDWLKGKQFTCKVNNKALPSPIERTISKARGQAHQPSVYVLPPSREELSKNTVSLTCLIKDFFPPDIDVEWQSNGQQEPESKYRTTPPQLDEDGSYFLYSKLSVDKSRWQRGDTFICAVMHEALHNHYTQKSLSHSPGK
light: DVQITQTPLTLSVTFGQPASISCKSSQSLLKSDGRTYLNWLLQRPGQSPKRLLYLVSKLDSGVPDRFTGSGSGTDFTLKISRVEAEDLGVYYCWQGTHFPQTFGGGTKLEIKGQPKASPSVTLFPPSSEELGANKATLVCLISDFYPSGVTVAWKADGSPITQGVETTKPSKQSNNKYAASSYLSLTPDKWKSHSSFSCLVTHEGSTVEKKVAPAECS
Lymphoma cells
  percentage of reduction of cell proliferation, Doxorubicin 6.6 nM: 65.77%
  percentage of reduction of cell proliferation, Doxorubicin 66 nM: 76.79%
  percentage of reduction of cell proliferation, Doxorubicin 0 nM: 59.82%

B2: VET 135 X VET 260: antibody variant: light chain VET135 (CD20-2 LC + VET101) with heavy chain VET260 (VET259 CD20-2 HC FR4T + VET201) (antibody)
heavy: QVQLQQSRAELVRPGASVTLSCKPSGYTFTDYEVHWVKQTPVHGLEWIGAIDPETGGTADNQKFKGKAILTADKSSSTAYMELRSLTSEDSAVYYCTNFVDVWGTGTTVTVSSASTTAPSVFPLAPSCGSQSGSTVALACLVSGYFPEPVTVSWNSGSLTSGVHTFPSVLQSSGLYSLSSMVTVPSSRWPSETFTCNVAHPASKTKVDKPVPKRENGRVPRPPDCPKCPAPEMLGGPSVFIFPPKPKDTLLIARTPEVTCVVVDLDPEDPEVQISWFVDGKQMQTAKTQPREEQFNGTYRVVSVLPIGHQDWLKGKQFTCKVNNKALPSPIERTISKARGQAHQPSVYVLPPSREELSKNTVSLTCLIKDFFPPDIDVEWQSNGQQEPESKYRTTPPQLDEDGSYFLYSKLSVDKSRWQRGDTFICAVMHEALHNHYTQKSLSHSPGK
light: DVVMSQSPSSLAVSVGEKVTMSCKSSQSLLYSGNQKNYLAWYQQKPGQSPRLLIYWASTRESGVPDRFTGSGSGTDFTLTISSVKAEDLAVFYCQQYYNYPLTFGAGTKLELKGQPKASPSVTLFPPSSEELGANKATLVCLISDFYPSGVTVAWKADGSPITQGVETTKPSKQSNNKYAASSYLSLTPDKWKSHSSFSCLVTHEGSTVEKKVAPAECS
Lymphoma cells
  percentage of reduction of cell proliferation, Doxorubicin 6.6 nM: 58.63%
  percentage of reduction of cell proliferation, Doxorubicin 66 nM: 64.88%
  percentage of reduction of cell proliferation, Doxorubicin 0 nM: 40.48%

B3: CD20-6: anti-canine CD20 antibody; full length HC SEQ ID NO. 42, LC SEQ ID NO. 43 (antibody)
heavy: EIQLQQSGAELVRPGASVTLSCKASGYTFTDYEMHWVKQTPVHGLEWIGGIDPETGGTAYNQKFKGKAILTADKSSSTVYMELRSLTSEDSAVYYCTRDYGTSGYWGQGTLVTVSSASTTAPSVFPLAPSCGSQSGSTVALACLVSGYFPEPVTVSWNSGSLTSGVHTFPSVLQSSGLYSLSSMVTVPSSRWPSETFTCNVAHPASKTKVDKPVPKRENGRVPRPPDCPKCPAPEMLGGPSVFIFPPKPKDTLLIARTPEVTCVVVDLDPEDPEVQISWFVDGKQMQTAKTQPREEQFNGTYRVVSVLPIGHQDWLKGKQFTCKVNNKALPSPIERTISKARGQAHQPSVYVLPPSREELSKNTVSLTCLIKDFFPPDIDVEWQSNGQQEPESKYRTTPPQLDEDGSYFLYSKLSVDKSRWQRGDTFICAVMHEALHNHYTQKSLSHSPGK
light: DVVVTQTPLSLPVSFGDQVSISCRSSQSLANSYGNTYLSWYLHKPGQSPQLLIYGISNRFSGVPDRFSGSGSGTDFTLKISRVEAEDLGVYFCSQSTHVPWTFGGGTHLTVLGQPKASPSVTLFPPSSEELGANKATLVCLISDFYPSGVTVAWKADGSPITQGVETTKPSKQSNNKYAASSYLSLTPDKWKSHSSFSCLVTHEGSTVEKKVAPAECS
modifications: canis familiaris/mus musculus
notes: anti-canine CD20 antibody; 43
[1]
  binding to recombinant canine CD20 (in words): effective binding
[1]; antibody 2.5 μg/mL
  mean fluorescence, Canine CD20: 2107 mean fluorescence units
[2]
  mean fluorescence, Feline CD20: 60 mean fluorescence units
Control Cells
  mean fluorescence, Control Cells: 4 mean fluorescence units
Recombinant canine CD20; conclusion from Table 7
  epitope of canine CD20 (in words): recognize different epitopes
Recombinant canine CD20; unlabelled competitor 25 μg/mL, biotin-labeled CD20-1 2 μg/mL
  percentage of inhibition (PI), labeled antibody CD20-1: 6.03%
Recombinant canine CD20; unlabelled competitor 25 μg/mL, biotin-labeled CD20-2 2 μg/mL
  percentage of inhibition (PI), labeled antibody CD20-2: 1.41%
Recombinant canine CD20; unlabelled competitor 25 μg/mL, biotin-labeled CD20-5 2 μg/mL
  percentage of inhibition (PI), labeled antibody CD20-5: 5.99%
